{"source": "the DeepSol protein solubility set"}
{"assay": "soluble on expression in E. coli; label from the status in PepcDB or PDB records"}
{"sequence": "MGSDKIHHHHHHMADWTDNLPEAAQAYLENRRLDEVECIISDLPGIARGKAVPASKFARQDYFHLPDSIFYQTITGDWGDAAGEEGFIERDMILRPDYSTATAAPWTGDWTLQVIHDAYDRDGDPIPFSPRNVLRRVVSLYHAQGWKPVVAPEMEFFLVARNLDPAKEIEPMMGRSGRPAAARQAYSMTAVDEFGPVIDDIYDFAEAQGFEIDGITQEGGAGQLEINLRHGSPVRLADEVFYFKRLIREAALRHNCFATFMAKPIENEPGSAMHIHHSIVDMETGENIFSGPQGGETDAFYHFIAGLQNHLPSGLAVMAPYVNSYRRYVKDHAAPINLEWGRDNRTTGIRVPLSGPAARRIENRLAGMDCNPYLGIAVSLACGYLGLMEELRPRKQFKGDAYVGEGDIPQVMGDALDLFDEAKALHEVLGPEFARVYSIVKRAEYNEFLQVISPWEREHLLMNV", "soluble on expression in E. coli": "not soluble"}
{"sequence": "MGSDKIHHHHHHMADYTKMWSELGLDLKSHDALLSILGSAYGDIFLSQKDRPEGMKYFDFVMSEVHGLRIQELMEAKARGRIVVGSYCVFVPEELILAVDGVSVGLCAGAEFNFEGAEEVLPRNTCALIKSAFGFKFGKVCPYLEACDVVVGENTCDGKKKAYEILGPLVTDLYVIDLHQTKSDMGRALLKEEYRRFAAKLESVSGKKITPDSLKKGIEVVNAKRMAVKRLAAIRAADPAPISGLDALLVNQVFFYDDPVRFTHSVNQLCDELEERVKQGIGVFAQGTTRVIVSGCPMAVPNWKLPMLIESSNAVIVGEESCVGERGTRWLTEFRGETEEDLLDALTERYFSIDCAVFTPNPSRVDYVKEMTKKLNAQGVIHYSLQFCQPHMVESGPVEKELEKSGIPTLRLETDYSQEDAGQLKTRIEAFVERLENK", "soluble on expression in E. coli": "not soluble"}
{"sequence": "MGSDKIHHHHHHMAEVHVIGQIIGATGFSESSLFCKWGIHTGAAWKLLSGVREGQTQVDTPQIGDMAYWSHPIDLHFATKGLQGWPRLHLQVWSQDSFGRCQLAGYGFCHVPSSPGTHQLDCPTWRPLGSWREQLARAFVGGGPQLLHADTIYSGADRYRLHTAAGGTVHLGIGLLLRHFDRYGVEC", "soluble on expression in E. coli": "not soluble"}
{"sequence": "MGSDKIHHHHHHMAFFDLPLEELKKYRPERYEEKDFDEFWEETLAESEKFPLDPVFERMESHLKTVEAYDVTFSGYRGQRIKGWLLVPKLEEEKLPCVVQYIGYNGGRGFPHDWLFWPSMGYICFVMDTRGQGSGWLKGDTPDYPEGPVDPQYPGFMTRGILDPRTYYYRRVFTDAVRAVEAAASFPQVDQERIVIAGGSQGGGIALAVSALSKKAKALLCDVPFLCHFRRAVQLVDTHPYAEITNFLKTHRDKEEIVFRTLSYFDGVNFAARAKIPALFSVGLMDNICPPSTVFAAYNYYAGPKEIRIYPYNNHEGGGSFQAVEQVKFLKKLFEKG", "soluble on expression in E. coli": "soluble"}
{"sequence": "MGSDKIHHHHHHMAIGIVIASHGEFAAGIHQSGSMIFGDQEKVQVVTFMPSEGPDDLYAKFNDAIAAFDADDEILVLADLWSGSPFNQASRVMEENSDRKFAIITGLNLPMLIQAYTERMMDAAAGVEQVAANIIKEAKDGVKILPEKLQPQEEAPTTSTKKAAPQGAIPEGTVIGDGKLKINLARVDTRLLHGQVATNWTPASKADRIIVASDTVAKDELRKGLIKQAAPGGVKANVVPIKKLIEAAKDPRFGNTHALILFETPQEALEAIEGGVPITELNIGSMAHSTGKTMVNNVISMDKDDVATFEKLRDLGVKFDVRKVPNDSQKDLFELIEKAHVQ", "soluble on expression in E. coli": "not soluble"}
{"sequence": "MGSDKIHHHHHHMAISVTAEEKQILAGVTIPPRPQALLDISKEAKQEYPDVSKIAKAISEDVGISAAVLQVVNSVAFRRNNQISSIHQAVMTLGIKRIFPLVKAVAIKGALPENPMLNEFWQSSSMVASACTLYANLLGKANLSDNAYMLGLFHNAGVPVMLQAFPAYQALLMRGITEGWGEVASLEVQEFKTSHTTLGALLAQQWELPKPMVEVIYYLHDIDGIFTSGELSEVGLYLLAILKLARSSVDGVIRGECNTDEWLKIQDPLLAFLNLDEVQLDEFREEVAEKLRSEG", "soluble on expression in E. coli": "not soluble"}
{"sequence": "MGSDKIHHHHHHMAKAKTAYSCTECGGQTPKWQGQCPSCMAWNTLVESVVEAAPSQNRYAALAQSSGLQKLADVEAADVPRHPTGIHEFDRVLGGGLVPGGVVLIGGDPGIGKSTLLLQTLCHIGGMRKAVYVSGEESAQQIAMRAKRLGLDAGPVELLAEISLEKILAILQQHKPEVAVIDSIQTLYSEALQSAPGSVAQVRECSAQLTRFAKQTGVTMILVGHVTKEGSLAGPRVLEHIVDTVLYFEGGQNSSFRLVRAFKNRFGAVNELGVFAMTEKGLREVSNPSALFLSHHAEQVAGSCITVTQEGSRPLLVEVQALVDEAHAPNPKRLCVGLEQNRLAMLLAVLHRHAGVACFDQDVFINAVGGVRISEPAVDLAVLLAIVSSLKNKPLNNKLIVFGEVGLAGEVRPVQRGQERLREAAKLGFTHAIVPKANLPKQVIDGLDVKGVERLDQALQLLRNG", "soluble on expression in E. coli": "not soluble"}
{"sequence": "MGSDKIHHHHHHMAKKHEPFVIGDVSVAAGTQQSVKLPAAKLYNDTPMDLHVEVFHGTKAGPVLLVCAAIHGDELNGIEICRRLLGRVNAKTLTGTLLIVPIVNVFGFIQQSRYLPDRRDLNRCFPGSAKGALASRLAHLFSSILVKRATHIVDLHTGAIHRDNLPQIRCDTDDEVMLDMANAFGAPVIMSSKAREGSMRGYANSLNIPCILYEAGEALRFSDMSIKSGVNGVINVMRCLSMTKGKIKTKSTSVNASRSYWVRSESDGLVNIKLKLGERVSKGQVLANIVNPLGGEPSPLLAPTDGIIIGNSNIPVTNEGEALFHIAQFSGDEIEIINDNLDDFMQEYA", "soluble on expression in E. coli": "not soluble"}
{"sequence": "MGSDKIHHHHHHMAMNDNNINTCRYRVDVPYPPVRVVGPNPVYACEMLGNMGDAVSEMSDVTRYFYISVVTKPQYSWISACFRDISIVEMHHLNIFAELALLLGADPRLWSCRDCMQWWSPSYIGYPHGVRPLIAESIQAEEAAIRKYSHQADTICDMNIVAILRRIIQDEMYHLQIFREMYQQV", "soluble on expression in E. coli": "not soluble"}
{"sequence": "MGSDKIHHHHHHMANGLQRLIRSLKLVARYGLIVMNDGLICLPIKQRQVVFESFNGKDVNDNPAAIYRELVATAPEYRTTAYFSVKPREFAALHKKYPQIQLVKRFTPRWVWLMARAEFWVLNSRLPNWWHQNRRTTVIQTWHGTPLKKLGADIEHVAIPGTTTAAYHQEFKTAASRWQYLIAPNQYSQTIFKSAFGFHHQFLSVGYPRNDRLYTTLPAEITDLKQQLLGSTKGPVVTYAPTWRDDMAVRPGVYQFDLPFDLAEFFQHVPANTQLIIRPHYLVKDAIDIHGFEERVHVLAETDITDLYLISDLLITDYSSVMFDFANLQRPQLFFAYDLAHYRDQLRGFYFDYEQEIPGPLVTTASAFYAQLDRWRQDGAFHDYQARQAAFYEKFCSWENGTASRQVVQVMLHGKDEIK", "soluble on expression in E. coli": "not soluble"}
{"sequence": "MGSDKIHHHHHHMANNFDLHAALTLATKPGPFVTMTLPVTGIPATDRTQFNSLLKQGKEQLEKVAPDRTWSAYAESFTPFEHGPLTNGSATGLLIMAGASDSYHYWLHTPVAATVTVTYQPNVLPILQAQDKTSDYDILLLGRDAFDLAQVRNGRPEMVNLPVDAPVTLEKALGSELRDRGRWQRSAGEHTQYSGTGSLDTAREADQRNYFMMVDAYVSQHYSNVDQVPLILVANASDQGNFRKFSQNAYLDHVVRVVQGPNLAAANQTLAALALSITEQRHQQATQIRRDAYAKVRQNQQVVQDLGPLATAAVQGQVAKLWLRDDASQPGHLTEKGTVMTATALSRQNNLYNDLALQVSRLGGQVEVLPADAMPTSNPVAAQLRLRETVAH", "soluble on expression in E. coli": "not soluble"}
{"sequence": "MGSDKIHHHHHHMARKISDYHLKKREETQKKFIDLLAQNNYIHISGDMVNSKTKVKVRCRHNHTWQVNYEHFKKGTRCPECRIIEGSLKKRLNISTVKSRYALKGYEILSTYKNCHSKLKAKCPEGHIWEHLPSNFFKGEECFQCKGAKKYTVECAQAAFSDRGFIPLFDTYHHNKENLPFLCKEHIDLGVQYAPLHNMVRGLANCRKCYLLLFTGENSSRWKGGISSLNKTLREAVYEVWTKPSLEKYSFKCAITNSTKDLHVHHYKKNFSEIVKEALSNLSFEL", "soluble on expression in E. coli": "not soluble"}
{"sequence": "MGSDKIHHHHHHMARTNPHRPFVPDPEQAALAPGVSGNDINGLGETAFRRPRMVYWAPDPDDIPHGSLQRYFYRQSAKEPDFASRRAARQAVLDAPLPLLADTVVIRDPADWTAALTQFVDSGLCDLTGVAEMNPDWVFEGHEIPQSRVIMIGVAHDYNVIATAPKPSAGLEVMTQYTRAAQAAKTIAGWLRQQGWQAEPLTGPMTGALAMIPPALACGFGELGKHGSIINPDLGASFRLSAVLSDAPFAPTPAQDHGIDGFCQNCHICQDACPPEALFAQKQTVRGARKWYVDFDKCLPFFNQTHGCAICIAECPWSRPGIGPNLAAKLARKRNRDATG", "soluble on expression in E. coli": "not soluble"}
